Ends that are not written are not given here. HPMA copolymer = HPMA copolymer made by RAFT copolymerization of HPMA with N-(3-aminopropyl)methacrylamide (APMA), bearing maleimide groups for grafting

In paper PMC10980815, “Cell surface patching via CXCR4-targeted nanothreads for cancer metastasis inhibition” (Nature Communications, 2024) one finds Size and ζ-potential data, which are given here for three molecules.

A short description of data set [1]: Hydrodynamic size / size distribution by dynamic light scattering. The format is physicochemical. Particulars: Malvern Zetasizer Nano ZS90, mean ± SD. How it is done:
(§1) The average molecular weight (Mw) and polydispersity (PDI) of the HPMA copolymer conjugates were determined by gel permeation chromatography (GPC) on an AKTA purifier equipment with a Superose 6 10/300 GL analytical column (GE Healthcare, USA) and a differential refraction detector (KNAUER, 2300, Germany). Hydrodynamic sizes and zeta potentials were determined using a Malvern Zetasizer Nano ZS90 equipment (Malvern Instruments Ltd, Malvern, UK). The contents of BS, CM1, and CM2 were determined using a bicinchoninic acid (BCA) protein assay. The PS concentration was determined by ultraviolet-visible (UV-Vis) spectroscopy at its characteristic absorbance peak (660 nm).
To investigate the coiled-coil assembly, varying CM1-to-CM2 ratios (3:1, 1:1, and 1:3) of P-BS-CM1 and P-CM2 were mixed in 10 mM PBS (pH 7.4) at 25 °C for 10 min. The total polymer concentration was kept constant at 10 mg/mL. Circular dichroism spectra, size distribution, and rheological properties of P-BS-CM1, P-CM2, and their mixture were measured. The surface morphology of P-BS-CM1 and the mixture (P-BS-CM1 + P-CM2) was observed using scanning electron microscopy. Additionally, for the FRET assay, CM1-to-CM2 equimolar of P-BS-CM1-Cy5 and P-CM2-Cy3 were mixed in 10 mM PBS (pH 7.4) at 25 °C for 10 min. Fluorescent spectra of P-BS-CM1-Cy5, P-CM2-Cy3, and the mixture (P-BS-CM1-Cy5+P-CM2-Cy3) were recorded at the Cy3 excitation wavelength of 550 nm.

Data set [2] can be described thus: ζ-potential (Zetasizer). It is filed as physicochemical. As to conditions: Malvern Zetasizer Nano ZS90; mean ± SD. How it is done:
as §1

In turn, “P-CM2: HPMA copolymer-CM2 conjugate, ~12 CM2 grafts per polymer (C(HPMA copolymer)YGGEVSALEKEVSALEKKNSALEKEVSALEKEVSALEK; also: CM2 N-terminal cysteine joined to a maleimide of the HPMA copolymer backbone, ~12 per polymer)” registered a Size in data set [1] of 19.2±0.7 nm. The molecule also showed a ζ-potential in data set [2] of -8.73±0.34 mV.
For “P-PS-CM2: HPMA backbone grafted with CM2 and chlorin e6 photosensitizer (C(HPMA copolymer)YGGEVSALEKEVSALEKKNSALEKEVSALEKEVSALEK; also: chlorin e6 photosensitizer on polymer)”, the Size in data set [1] came out at 25.8±1.2 nm. Moreover, the ζ-potential in data set [2] was -11.21±1.24 mV.

B1: P-BS-CM1: linear HPMA polymer backbone grafted with CXCR4 binding sequence (BS) and coiled motif CM1 (conjugate)
chain 1: LGASWHRPDKCCLGYQKRPLPA
chain 2: C(HPMA copolymer)YGGKVSALKEKVSALKEEVSANKEKVSALKEKVSALKE
modifications: not fully specified (some residues); also: BS cysteines (Cys11, Cys12) joined to maleimides of the HPMA copolymer backbone, ~6 per polymer, CM1 N-terminal cysteine joined to a maleimide of the HPMA copolymer backbone, ~4 per polymer
Turning to B1, the Size in data set [1] is recorded as 17.5±2.1 nm. Besides, the ζ-potential in data set [2] is -5.67±0.79 mV.
